According to patent US20190083587A1 (Novo Nordisk, published 2019):
The star is where a group is joined. Biotin = O=C1N[C@H]2[C@H](CS[C@H]2CCCCC(=O)*)N1; AEEA = NCCOCCOCC(=O)O

How the values were obtained:
[1] = target: T1, hTLT-1.126-162 (human); assay: told in the HX-MS example; method not given
T1 construct: Made by solid phase peptide synthesis; not glycosylated; also called TLT-1 stalk peptide; chain P
T1 peptide: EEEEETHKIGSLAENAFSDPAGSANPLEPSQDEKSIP

[2] = target: T2, hTLT-1 ECD-His (human, UniProt Q86YW5 16-162); assay: SPR Biacore, mAb captured via human Fc mAb, TLT-1 as analyte
T2 construct: Extracellular domain of human TLT-1 with C-terminal His-6 tag; the range 16-168 is computed from these; also called TLT-1-His; His tagged human TLT1
T2 sequence: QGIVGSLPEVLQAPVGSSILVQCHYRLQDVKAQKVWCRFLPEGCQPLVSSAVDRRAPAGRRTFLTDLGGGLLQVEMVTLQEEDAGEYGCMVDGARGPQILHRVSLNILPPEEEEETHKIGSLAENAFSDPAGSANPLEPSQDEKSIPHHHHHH
Description: Method: The mAbs of interest were either immobilized directly to a CM5 chip or by capture via a human Fc capture mAb immobilized to a CM5 chip, while TLT-1-His was immobilized by capture via an anti-His mAb CM5 chip for analysis of Fabs.
mAb direct capture: The TLT-1 mAbs were immobilised to a level of approx 500-1000 RU on a CM5 chip (50 μg/ml diluted in Na-acetate, pH 4.0) using the standard procedure recommended by the supplier. Two-fold dilutions of TLT-1 from 200 nM to 0.2 nM were tested for binding to the mAbs. Running and dilution buffer: 10 mM HEPES, 150 mM, 0.005% p20, pH 7.4. Regeneration was obtained by 10 mM Glycine, pH 1.7. mAb capture via human Fc mAb: Human Fc mAb was immobilised to approx 10.000 RU. The mAb of interest was added (approx 100 nM). Two-fold dilutions of TLT-1 from 200 nM to 0.2 nM were tested. Running and dilution buffer: 10 mM HEPES, 150 mM, 0.005% p20, pH 7.4. Regeneration was obtained in 3 M MgCl₂.

[3] = target: T3, biotinylated 20 mer peptide 5 from stalk region of TLT-1 (N-terminal bio-Oeg (biotin, 8-amino-3,6-dioxaoctanoic acid spacer)); assay: peptide-walking ELISA on streptavidin plate, triple determination
T3 construct: also called A 5
T3 peptide: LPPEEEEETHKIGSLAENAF
Description: (§1) The peptide walking ELISA defined the minimal binding region of the peptide. This was established by coating biotinylated peptides with one residue frameshift in the stalk region of TLT-1 in streptavidin plates followed by binding of the antibody of interest (mAb0061). A secondary antibody was added for detection and binding was measured at 450 nm. Positive control: binding to biotinylated TLT-1.

[4] = target: T4, biotinylated 20 mer peptide 6 from stalk region of TLT-1 (N-terminal bio-Oeg (biotin, 8-amino-3,6-dioxaoctanoic acid spacer)); assay: as above
T4 construct: also called A 6
T4 peptide: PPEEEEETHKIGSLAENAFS
Description: as §1

[5] = target: T5, biotinylated 20 mer peptide 7 from stalk region of TLT-1 (N-terminal bio-Oeg (biotin, 8-amino-3,6-dioxaoctanoic acid spacer)); assay: as above
T5 construct: also called A 7
T5 peptide: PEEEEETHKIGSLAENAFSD
Description: as §1

[6] = target: T6, biotinylated 20 mer peptide 8 from stalk region of TLT-1 (N-terminal bio-Oeg (biotin, 8-amino-3,6-dioxaoctanoic acid spacer)); assay: as above
T6 construct: also called A 8
T6 peptide: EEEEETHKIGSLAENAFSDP
Description: as §1

[7] = target: T7, biotinylated 20 mer peptide 9 from stalk region of TLT-1 (N-terminal bio-Oeg (biotin, 8-amino-3,6-dioxaoctanoic acid spacer)); assay: as above
T7 construct: also called A 9
T7 peptide: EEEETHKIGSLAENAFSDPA
Description: as §1

[8] = target: T8, biotinylated 20 mer peptide 10 from stalk region of TLT-1 (N-terminal bio-Oeg (biotin, 8-amino-3,6-dioxaoctanoic acid spacer)); assay: as above
T8 construct: also called A10
T8 peptide: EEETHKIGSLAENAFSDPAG
Description: as §1

[9] = target: T9, biotinylated 20 mer peptide 11 from stalk region of TLT-1 (N-terminal bio-Oeg (biotin, 8-amino-3,6-dioxaoctanoic acid spacer)); assay: as above
T9 construct: also called A11
T9 peptide: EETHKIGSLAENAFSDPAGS
Description: as §1

[10] = target: T10, biotinylated 20 mer peptide 12 from stalk region of TLT-1 (N-terminal bio-Oeg (biotin, 8-amino-3,6-dioxaoctanoic acid spacer)); assay: as above
T10 construct: also called A12
T10 peptide: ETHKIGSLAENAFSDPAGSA
Description: as §1

[11] = target: T11, biotinylated 20 mer peptide 13 from stalk region of TLT-1 (N-terminal bio-Oeg (biotin, 8-amino-3,6-dioxaoctanoic acid spacer)); assay: as above
T11 construct: also called B 1
T11 peptide: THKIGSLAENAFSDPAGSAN
Description: as §1

[12] = target: T12, biotinylated 20 mer peptide 14 from stalk region of TLT-1 (N-terminal bio-Oeg (biotin, 8-amino-3,6-dioxaoctanoic acid spacer)); assay: as above
T12 construct: also called B 2
T12 peptide: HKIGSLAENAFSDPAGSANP
Description: as §1

[13] = target: T13, biotinylated 20 mer peptide 15 from stalk region of TLT-1 (N-terminal bio-Oeg (biotin, 8-amino-3,6-dioxaoctanoic acid spacer)); assay: as above
T13 construct: also called B 3
T13 peptide: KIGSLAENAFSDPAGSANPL
Description: as §1

[14] = target: T14, biotinylated 20 mer peptide 16 from stalk region of TLT-1 (N-terminal bio-Oeg (biotin, 8-amino-3,6-dioxaoctanoic acid spacer)); assay: as above
T14 construct: also called B 4
T14 peptide: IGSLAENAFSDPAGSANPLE
Description: as §1

[15] = target: T15, biotinylated 16 mer peptide 36 from the stalk region of hTLT-1 (SMILES …); assay: as above
T15 construct: also called C12
T15 peptide: {Biotin-AEEA}-EEEETHKIGSLAENAF-NH2
Description: as §1

[16] = target: T16, biotinylated 16 mer peptide 37 from the stalk region of hTLT-1 (SMILES …); assay: as above
T16 peptide: {Biotin-AEEA}-EEETHKIGSLAENAFS-NH2
Description: as §1

[17] = target: T17, biotinylated 16 mer peptide 38 from the stalk region of hTLT-1 (SMILES …); assay: as above
T17 construct: also called D 2
T17 peptide: {Biotin-AEEA}-EETHKIGSLAENAFSD-NH2
Description: as §1

[18] = target: T18, biotinylated 16 mer peptide 39 from the stalk region of hTLT-1 (SMILES …); assay: as above
T18 construct: also called D 3
T18 peptide: {Biotin-AEEA}-ETHKIGSLAENAFSDP-NH2
Description: as §1

[19] = target: T19, biotinylated 16 mer peptide 40 from the stalk region of hTLT-1 (SMILES …); assay: as above
T19 construct: also called D 4
T19 peptide: {Biotin-AEEA}-THKIGSLAENAFSDPA-NH2
Description: as §1

[20] = target: T20, biotinylated 16 mer peptide 41 from the stalk region of hTLT-1 (SMILES …); assay: as above
T20 construct: also called D 5
T20 peptide: {Biotin-AEEA}-HKIGSLAENAFSDPAG-NH2
Description: as §1

[21] = target: T21, biotinylated 16 mer peptide 42 from the stalk region of hTLT-1 (SMILES …); assay: as above
T21 construct: also called D 6
T21 peptide: {Biotin-AEEA}-KIGSLAENAFSDPAGS-NH2
Description: as §1

B1: mAb0061 (antibody, human IgG4 S228P, kappa, V domains shown)
VH: EVKLLESGGGLVQPGGSLKLSCAASGFDFSRYWMTWVRQAPGKGLEWIGEINPDSSTINYNPSLKDKFIISRDNAKNTLYLQMSEVRSEDTALYYCASGVFTSWGQGTLVTVSA
VL: DVVMTQTPLSLPVSLGDQASISCRSSQSLVHRNGNTYFHWALQKPGQSPKLLIYKVSNRFSGVPDRFSGSGSGTDFTLKISRVEAEDLGVYFCSQSTHVPYTFGGGTKLEIKR
notes: Mouse VH/VL, human IgG4 / kappa; variant of mAb0012 (HC T60N, LC C36A, Kabat); also called antiTLT-1 0061mab; (0012HC.T60N)2
binding result [1]: binds
Kd [2]: 3.75 nM
koff [2]: 0.0035 s⁻¹
kon [2]: 932000 M⁻¹ s⁻¹
absorbance at 450 nm [3]: > 3
absorbance at 450 nm [4]: > 3
absorbance at 450 nm [5]: > 3
absorbance at 450 nm [6]: > 3
absorbance at 450 nm [7]: > 3
absorbance at 450 nm [8]: > 3
absorbance at 450 nm [9]: > 3
absorbance at 450 nm [10]: > 3
absorbance at 450 nm [11]: > 3
absorbance at 450 nm [12]: > 3
absorbance at 450 nm [13]: > 3
absorbance at 450 nm [14]: > 3
absorbance at 450 nm [15]: > 3
absorbance at 450 nm [16]: > 3
absorbance at 450 nm [17]: > 3
absorbance at 450 nm [18]: > 3
absorbance at 450 nm [19]: > 3
absorbance at 450 nm [20]: > 3
absorbance at 450 nm [21]: > 3
